The target in the assay is HER-2 protein (human p185 HER-2 receptor) (human) (UniProt P04626). In words: flow cytometry on SKBR3 cells, control sample. (In general: In flow cytometry, cells or beads pass a laser one at a time.)

negative control sera (antibody) displayed a Mean Cell Fluorescence of 0.647.

These data come from patent US7060284.
